Paper PMC2605743, “Lipid bilayer composition influences small multidrug transporters” (BMC Biochemistry, 2008)

How the values were obtained:
EmrE = molecular target: T1, EmrE (Escherichia coli, UniProt P23895); experiment: isothermal titration calorimetry; assay type: binding
T1 construct: dimer by TPP stoichiometry

[1] = test system: C[n+]1ccc(-c2cc[n+](C)cc2)cc1; experiment: purified protein; settings: labelled compound; DOPC liposomes without added DOPG; pH gradient (inside 7.5, outside 8); saturation incomplete, estimate

T1 sequence (P23895 whole entry): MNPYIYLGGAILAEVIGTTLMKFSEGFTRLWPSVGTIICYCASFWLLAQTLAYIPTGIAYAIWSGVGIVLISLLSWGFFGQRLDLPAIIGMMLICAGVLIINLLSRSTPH

| Compound | Kd (EmrE) | Km [1] | Vmax [1] |
| --- | --- | --- | --- |
| c1ccc([P+](c2ccccc2)(c2ccccc2)c2ccccc2)cc1 [TPP] | 36 nM |  |  |
| EmrE (Escherichia coli K-12) |  | 1100 ± 500 µM | 2 µmol/min |
